Data as given in PMC6868385.

Molecular target: GFP-tagged BLM (Bloom helicase) (human) (UniProt P54132)
Experiment: single-molecule fluorescence intensity

stoichiometry N (molecules of GFP–BLM per complex): 3.1
Substance: GFP-tagged BLM (Bloom helicase), P54132 1-1417 (enzyme; other documents disagree on this pair)
